In publication PMC4809050 (2016) one finds Kd data, which are given here for 1 molecule.

Holding throughout (experiment): NMR chemical shift titration
The target in assay [1] is T1, PSGL-1 N-terminus peptide 2-15 (Homo sapiens, UniProt Q14242).
T1 chain: PLQLLLLLILLGPG

Assay [2] concerns the target T2, CCR7 N-terminus peptide 1-30 (Homo sapiens, UniProt P32248).
T2 chain: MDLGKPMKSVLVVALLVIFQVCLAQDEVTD

Assay [3] has as its target T3, CCR7 N-terminus peptide 2-30 (Homo sapiens, UniProt P32248).
T3 chain: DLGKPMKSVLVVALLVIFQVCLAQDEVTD

The target of assay [4] is PSGL-1 N-terminus peptide 1-15 (Homo sapiens, UniProt Q14242, N-terminal pyroglutamate).

B1: CCL19 (protein)
chain: GTNDAEDCCLSVTQKPIPGYIVRNFHYLLIKDGCRVPAVVFTTLRGRQLCAPPDQPWVERIIQRLQRTSAKMKRRSS
As to B1, the Kd (in general, the equilibrium constant for the complex coming apart) in assay [1] came to 18 µM; in assay [2], 52 µM; in assay [3], 12 µM; in assay [4], 20 µM.
